The results in this text go back to paper PMC9129042 (PLoS ONE, 2022).

The test deals with WA-1 NTD probe (SARS-CoV-2 WA-1, UniProt P0DTC2, biotin on the AVI tag (…)). The test is described as follows: BLI. To be noted: both partners purified.

B1: 5–7 (antibody, V domains shown)
VH: QVQLVQSGAEVKKPGASVKVSCKASGYTFTSYYMHWVRQAPGQGLEWMGVINPSGGSTSYAEKFRGRVTMTRDTSTSTVYMELSSLRSEDTAVYYCARDREPHSDSSGYWDSLKYYYYYALDVWGQGTTVTVSS
VL: AIQLTQSPSSLSASVGDRVTITCRASQGISSYLAWYQQKPGKAPELLIYAASTLQSGVPSRFSGSGSGTDFTLTISSLQPEDFATYYCQQLNTYPFTFGPGTKVDIK
notes: also called antibody 5-7
As to B1, the binding result is recorded as “binds”.
